Assay [1] concerns the target T1, recombinant human stanniocalcin 1, C-terminally myc-his-tagged (human, UniProt P52823 34-247). The assay can be described thus: SPR (Biacore T200); PAPP-A captured by immobilised mAb 234-5, purified STC1 as analyte, global 1:1 Langmuir fit. The method, then: (§1) Surface plasmon resonance experiments were carried out on a Biacore T200 (GE Healthcare). Using amine coupling, purified monoclonal antibody 234-5 was immobilized in flow cells (FC) 3 and 4 of a Series S CM5 Sensor Chip (GE Healthcare). To reach a coupling density of 5,000 response units (RU), the antibody was diluted to 30 μg ml⁻¹ in 10 mM sodium acetate, pH 4.75. Remaining active groups were blocked by a 7 min injection of 1 M ethanolamine, pH 8.0. […] The association phase was 180 s, followed by a 1,000 s dissociation phase. At the end of each binding cycle, both surfaces were regenerated by a 40 s injection of 0.1 M glycine, pH 2.5, and 0.5 M guanidine hydrochloride. […] Binding analysis was performed at 25° C., and data were collected at a rate of 10 Hz. Recorded signals were subtracted the background signal, as determined by the response obtained from the reference cell. Global fitting of a 1:1 Langmuir model was performed, using the Biacore T200 Evaluation Software, version 1.0.

The target of assay [2] is T1, recombinant human stanniocalcin 1, …. The assay can be described thus: SPR (Biacore T200), PAPP-A captured by immobilised mAb 234-5, STC1 injected at 0.20-6.26 nM, global 1:1 Langmuir fit. The method, then: as §1
(In general: SPR reads the build-up and loss of mass on a sensor chip optically.)

The values below come from patent US20200261490A1 (AARHUS UNIVERSITET, published 2020).

B1: recombinant human PAPP-A (pregnancy-associated plasma protein-A, pappalysin-1) (enzyme)
chain: EARGATEEPSPPSRALYFSGRGEQLRLRADLELPRDAFTLQVWLRAEGGQRSPAVITGLYDKCSYISRDRGWVVGIHTISDQDNKDPRYFFSLKTDRARQVTTINAHRSYLPGQWVYLAATYDGQFMKLYVNGAQVATSGEQVGGIFSPLTQKCKVLMLGGSALNHNYRGYIEHFSLWKVARTQREILSDMETHGAHTALPQLLLQENWDNVKHAWSPMKDGSSPKVEFSNAHGFLLDTSLEPPLCGQTLCDNTEVIASYNQLSSFRQPKVVRYRVVNLYEDDHKNPTVTREQVDFQHHQLAEAFKQYNISWELDVLEVSNSSLRRRLILANCDISKIGDENCDPECNHTLTGHDGGDCRHLRHPAFVKKQHNGVCDMDCNYERFNFDGGECCDPEITNVTQTCFDPDSPHRAYLDVNELKNILKLDGSTHLNIFFAKSSEEELAGVATWPWDKEALMHLGGIVLNPSFYGMPGHTHTMIHEIGHSLGLYHVFRGISEIQSCSDPCMETEPSFETGDLCNDTNPAPKHKSCGDPGPGNDTCGFHSFFNTPYNNFMSYADDDCTDSFTPNQVARMHCYLDLVYQGWQPSRKPAPVALAPQVLGHTTDSVTLEWFPPIDGHFFERELGSACHLCLEGRILVQYASNASSPMPCSPSGHWSPREAEGHPDVEQPCKSSVRTWSPNSAVNPHTVPPACPEPQGCYLELEFLYPLVPESLTIWVTFVSTDWDSSGAVNDIKLLAVSGKNISLGPQNVFCDVPLTIRLWDVGEEVYGIQIYTLDEHLEIDAAMLTSTADTPLCLQCKPLKYKVVRDPPLQMDVASILHLNRKFVDMDLNLGSVYQYWVITISGTEESEPSPAVTYIHGSGYCGDGIIQKDQGEQCDDMNKINGDGCSLFCRQEVSFNCIDEPSRCYFHDGDGVCEEFEQKTSIKDCGVYTPQGFLDQWASNASVSHQDQQCPGWVIIGQPAASQVCRTKVIDLSEGISQHAWYPCTISYPYSQLAQTTFWLRAYFSQPMVAAAVIVHLVTDGTYYGDQKQETISVQLLDTKDQSHDLGLHVLSCRNNPLIIPVVHDLSQPFYHSQAVRVSFSSPLVAISGVALRSFDNFDPVTLSSCQRGETYSPAEQSCVHFACEKTDCPELAVENASLNCSSSDRYHGAQCTVSCRTGYVLQIRRDDELIKSQTGPSVTVTCTEGKWNKQVACEPVDCSIPDHHQVYAASFSCPEGTTFGSQCSFQCRHPAQLKGNNSLLTCMEDGLWSFPEALCELMCLAPPPVPNADLQTARCRENKHKVGSFCKYKCKPGYHVPGSSRKSKKRAFKTQCTQDGSWQEGACVPVTCDPPPPKFHGLYQCTNGFQFNSECRIKCEDSDASQGLGSNVIHCRKDGTWNGSFHVCQEMQGQCSVPNELNSNLKLQCPDGYAIGSECATSCLDHNSESIILPMNVTVRDIPHWLNPTRVERVVCTAGLKWYPHPALIHCVKGCEPFMGDNYCDAINNRAFCNYDGGDCCTSTVKTKKVTPFPMSCDLQGDCACRDPQAQEHSRKDLRGYSHG
notes: Secreted from transfected HEK293T cells and used in culture medium; also called wt PAPP-A; huPAPP-A
By Kd is commonly meant the concentration at which binding is half-saturated. In general, koff refers to the rate constant with which the complex falls apart. A word on the kon: it is the rate constant with which the complex forms. In the case of B1, the dissociation constant (Kd) in assay [1] came to 75 pM. For the same molecule, in assay [2], the Kd was 74.9 pM, the dissociation rate constant (koff) came out at 0.000208 s⁻¹ and the association rate constant (kon) came to 2.78e+06 M⁻¹ s⁻¹.
